Here are results for 1 molecule from patent US20060127407A1.

This test concerns the target alphaVbeta3 integrin (human) (UniProt P06756). Kind of test: ELISA, purified antibody on alphaVbeta3. A general note: In an ELISA, binding on a coated surface is turned into a signal by an enzyme label.

Chain of alphaVbeta3 integrin (human) (P06756 31-1048, chain 1 of 2): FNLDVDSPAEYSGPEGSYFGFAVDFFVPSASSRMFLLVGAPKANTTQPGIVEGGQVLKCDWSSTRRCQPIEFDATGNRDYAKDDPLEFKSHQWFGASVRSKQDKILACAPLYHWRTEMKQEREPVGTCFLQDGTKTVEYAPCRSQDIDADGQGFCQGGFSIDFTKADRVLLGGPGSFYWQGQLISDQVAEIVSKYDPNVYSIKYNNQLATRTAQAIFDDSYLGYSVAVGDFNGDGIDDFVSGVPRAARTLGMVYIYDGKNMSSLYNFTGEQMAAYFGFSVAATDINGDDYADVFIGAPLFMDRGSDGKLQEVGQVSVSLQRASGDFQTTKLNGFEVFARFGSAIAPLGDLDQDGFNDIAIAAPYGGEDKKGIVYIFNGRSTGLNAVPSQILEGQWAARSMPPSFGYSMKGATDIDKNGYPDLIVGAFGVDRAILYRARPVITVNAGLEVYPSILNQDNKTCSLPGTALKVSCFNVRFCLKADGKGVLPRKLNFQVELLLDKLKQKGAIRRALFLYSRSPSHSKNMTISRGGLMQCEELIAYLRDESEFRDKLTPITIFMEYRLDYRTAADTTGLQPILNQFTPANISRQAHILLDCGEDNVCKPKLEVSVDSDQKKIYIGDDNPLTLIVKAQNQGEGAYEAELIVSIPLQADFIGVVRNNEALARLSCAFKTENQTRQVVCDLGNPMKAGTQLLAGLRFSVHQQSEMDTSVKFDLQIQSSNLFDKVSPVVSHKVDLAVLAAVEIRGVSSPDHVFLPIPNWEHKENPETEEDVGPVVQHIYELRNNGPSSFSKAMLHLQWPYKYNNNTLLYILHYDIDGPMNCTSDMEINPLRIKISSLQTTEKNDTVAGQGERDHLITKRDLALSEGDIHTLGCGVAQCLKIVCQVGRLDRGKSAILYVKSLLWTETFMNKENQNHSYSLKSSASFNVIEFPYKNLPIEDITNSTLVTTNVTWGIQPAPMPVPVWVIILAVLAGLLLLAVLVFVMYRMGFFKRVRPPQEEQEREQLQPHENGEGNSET
Chain of alphaVbeta3 integrin (human) (P05106 27-788, chain 2 of 2, further chain): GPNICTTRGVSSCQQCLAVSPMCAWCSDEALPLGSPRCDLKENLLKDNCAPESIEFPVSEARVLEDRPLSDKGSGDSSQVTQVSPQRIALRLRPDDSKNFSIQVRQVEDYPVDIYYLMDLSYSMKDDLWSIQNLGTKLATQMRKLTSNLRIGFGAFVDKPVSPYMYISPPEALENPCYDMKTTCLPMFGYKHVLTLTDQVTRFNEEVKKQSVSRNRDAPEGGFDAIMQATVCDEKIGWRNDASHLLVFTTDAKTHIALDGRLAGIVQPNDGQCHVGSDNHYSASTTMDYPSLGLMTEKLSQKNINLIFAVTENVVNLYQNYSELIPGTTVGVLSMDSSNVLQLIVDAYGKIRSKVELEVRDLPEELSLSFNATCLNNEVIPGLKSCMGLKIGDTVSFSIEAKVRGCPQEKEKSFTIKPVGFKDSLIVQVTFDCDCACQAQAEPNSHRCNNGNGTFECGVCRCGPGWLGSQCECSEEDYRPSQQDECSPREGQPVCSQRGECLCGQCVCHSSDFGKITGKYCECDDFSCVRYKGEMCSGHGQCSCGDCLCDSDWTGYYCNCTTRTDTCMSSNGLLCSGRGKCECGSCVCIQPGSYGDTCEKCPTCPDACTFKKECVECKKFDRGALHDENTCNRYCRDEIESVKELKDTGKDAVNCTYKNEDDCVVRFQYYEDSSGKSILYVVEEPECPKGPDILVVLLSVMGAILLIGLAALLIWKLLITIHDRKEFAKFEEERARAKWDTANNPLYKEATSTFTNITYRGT

B1: c7E3 IgG (antibody, INN chains, looked up, V domains shown)
VH: EVQLQQSGTVLARPGASVKMSCEASGYTFTNYWMHWVKQRPGQGLEWIGAIYPGNSDTSYIQKFKGKAKLTAVTSTTSVYMELSSLTNEDSAVYYCTLYDGYYVFAYWGQGTLVTVSA
VL: EIVLTQSPVTLSVTPGDSVSLSCRASRDISNNLHWFQQTSHESPRLLIKYASQSMSGIPSRFSGSGSGTDFTLSINSVETEDFGMYFCQQTNSWPYTFGGGTKLEIK
modifications: IgG
B1 returned an EC50 of 0.07 µg/mL.

In general, EC50 refers to the concentration that produces a half-maximal response.
